# Data from PMC11376372.
# Legend:
# [1] = molecular target: oxidized wheat protein disulfide isomerase (wPDI^O) (wheat) (UniProt P52589); assay: ITC; MicroCal VP-ITC; 0.3 mM 1Dx5-NTD^AAA titrated into 70 uM wPDI, 27 additions of 10 uL; 0.5 mM GSSG in both buffers (oxidized wPDI); single-site binding model
# [2] = molecular target: reduced wheat protein disulfide isomerase (wPDI^R) (wheat) (UniProt P52589); assay: ITC; MicroCal VP-ITC; 0.3 mM 1Dx5-NTD^AAA titrated into 70 uM wPDI, 27 additions of 10 uL; 1 mM DTT in both buffers (reduced wPDI); single-site binding model
substance,measurement,setting,value
"1Dx5-NTD^AAA, triple mutant of the N-terminal domain of HMW glutenin subunit 1Dx5 in which all three cysteines were mutated into alanine (domain or fragment)",Kd,[1],316 µM
same,Kd,[2],2590 nM
